From patent US20220281949A1

Molecular target: DR1-restricted TCR HA1.7
Assay: flow cytometry: HA1.7-transduced primary CD4+ T cells stained with PE wild-type DR1 dextramer and anti-CD4

wild-type DR1 dextramer specific to Flu-HA306-318 (peptide-MHC)
percent of cells in the dextramer+ CD4+ quadrant: 30.4%
